Measurements published in publication PMC6846668 (Nucleic Acids Research, 2019).
Residue numbers refer to the chain shown, from its start. In names and notes the source's numbering stands.

T1: PolIV (Escherichia coli, UniProt Q47155)
T1 sequence (Q47155 1-351): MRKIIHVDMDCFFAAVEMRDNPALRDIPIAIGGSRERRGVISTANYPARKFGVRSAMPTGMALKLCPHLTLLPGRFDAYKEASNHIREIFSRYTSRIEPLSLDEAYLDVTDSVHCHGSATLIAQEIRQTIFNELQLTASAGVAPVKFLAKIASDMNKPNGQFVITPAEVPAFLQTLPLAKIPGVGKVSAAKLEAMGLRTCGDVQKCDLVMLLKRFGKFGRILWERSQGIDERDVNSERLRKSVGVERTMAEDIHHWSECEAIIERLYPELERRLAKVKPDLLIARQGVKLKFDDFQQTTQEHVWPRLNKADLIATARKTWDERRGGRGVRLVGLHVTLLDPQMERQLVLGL

B1: MsDpo4 (Mycolicibacterium smegmatis MC2 155) (protein)
chain: MTKWVLHVDLDQFLASVELRRRPDLRGQPVIVGGSGDPSEPRKVVTCASYEAREFGVHAGMPLRAAARRCPDATFLPSDPAAYDEASEQVMGLLRDLGHPLEVWGWDEAYLGADLPDESDPVEVAERIRTVVAAETGLSCSVGISDNKQRAKVATGFAKPAGIYVLTEANWMTVMGDRPPDALWGVGPKTTKKLAAMGITTVADLAVTDPSVLTTAFGPSTGLWLLLLAKGGGDTEVSSEPWVPRSRSHVVTFPQDLTERREMDSAVRDLALQTLAEIVEQGRIVTRVAVTVRTSTFYTRTKIRKLPAPSTDAGQIVDTALAVLDQFELDRPVRLLGVRLELAMDDVPRPAVTAGT
B2: MsDpo4 (Mycolicibacterium smegmatis MC2 155; L14Y) (protein)
chain: B1 chain with L14Y

How the values were obtained:
[1] = molecular target: T1, PolIV; test: primer extension, gel; type: biochemical; conditions: 6FAM primer/template, 2.5 mM MnCl2, pH 8.0, 37°C
[2] = substrate: Nc1ccn([C@@H]2O[C@H](COP(=O)(O)OP(=O)(O)OP(=O)(O)O)[C@@H](O)[C@H]2O)c(=O)n1; test: primer extension, Lineweaver-Burk; type: biochemical, Mycolicibacterium smegmatis; conditions: 6FAM 15mer primer/50mer template, 2.5 mM MnCl2, pH 8.0, 37°C

Row | Molecule | primer extension, gel [1] | Km [2] [µM] | kcat [2] [s⁻¹] | kcat/Km [2] [M⁻¹ s⁻¹]
1 | Nc1ccn([C@H]2C[C@H](O)[C@@H](COP(=O)(O)OP(=O)(O)OP(=O)(O)O)O2)c(=O)n1 [dCTP] | mutations did not show a significant difference in the ability of PolIV to incorporate dCTP | – | – | –
2 | B1 | – | 55.3 ± 4.0 | 0.011 ± 0.00117 | 167 ± 16.7
3 | B2 | – | 59.54 ± 13.4 | 0.00167 ± 0.000167 | 26.7 ± 5
